From paper PMC9060465, “Structural determinants of dual incretin receptor agonism by tirzepatide” (Proceedings of the National Academy of Sciences of the …, 2022)

Legend:
[1] = target: mouse GLP-1R, endogenous in pancreatic islets (mouse (endogenous in pancreatic islets)) (UniProt O35659)
[2] = target: human GIPR expressed in HEK293 cells (human) (UniProt P48546); test: radioligand binding
[3] = target: human GLP-1R expressed in HEK293 cells (human) (UniProt P43220); test: radioligand binding
[4] = target: isolated extracellular domain (ECD) of human GIPR, amino acids 26 to 138 (human) (UniProt P48546); test: SPR
Sequence of isolated extracellular domain (ECD) of human GIPR, amino acids 26 to 138 (human) (P48546 26-138): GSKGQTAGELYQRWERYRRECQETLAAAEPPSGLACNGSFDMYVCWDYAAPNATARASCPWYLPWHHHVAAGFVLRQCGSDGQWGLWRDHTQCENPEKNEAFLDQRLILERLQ

[5] = target: isolated extracellular domain (ECD) of human GLP-1R, amino acids 24 to 145 (human) (UniProt P43220); test: SPR
Sequence of isolated extracellular domain (ECD) of human GLP-1R, amino acids 24 to 145 (human) (P43220 24-145): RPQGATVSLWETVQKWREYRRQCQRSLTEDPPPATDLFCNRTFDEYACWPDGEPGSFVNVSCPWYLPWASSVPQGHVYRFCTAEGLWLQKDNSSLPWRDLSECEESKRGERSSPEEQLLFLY

[6] = target: human GLP-1R expressed in HEK293 cells (human) (UniProt P43220); conditions: ligand

Sequence of mouse GLP-1R, endogenous in pancreatic islets (mouse (endogenous in pancreatic islets)) (O35659 22-463): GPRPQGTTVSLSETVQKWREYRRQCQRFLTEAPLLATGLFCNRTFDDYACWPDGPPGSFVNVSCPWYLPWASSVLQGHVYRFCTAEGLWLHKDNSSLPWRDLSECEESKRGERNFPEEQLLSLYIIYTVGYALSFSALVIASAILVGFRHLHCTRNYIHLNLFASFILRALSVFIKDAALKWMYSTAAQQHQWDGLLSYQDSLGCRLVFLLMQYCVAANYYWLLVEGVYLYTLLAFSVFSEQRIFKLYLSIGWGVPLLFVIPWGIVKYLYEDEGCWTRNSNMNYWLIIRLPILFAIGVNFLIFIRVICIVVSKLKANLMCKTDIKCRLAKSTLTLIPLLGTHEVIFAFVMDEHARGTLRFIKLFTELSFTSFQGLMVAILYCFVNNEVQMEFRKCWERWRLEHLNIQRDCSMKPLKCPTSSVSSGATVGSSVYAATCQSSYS
Sequence of human GLP-1R expressed in HEK293 cells (human) (P43220 24-463): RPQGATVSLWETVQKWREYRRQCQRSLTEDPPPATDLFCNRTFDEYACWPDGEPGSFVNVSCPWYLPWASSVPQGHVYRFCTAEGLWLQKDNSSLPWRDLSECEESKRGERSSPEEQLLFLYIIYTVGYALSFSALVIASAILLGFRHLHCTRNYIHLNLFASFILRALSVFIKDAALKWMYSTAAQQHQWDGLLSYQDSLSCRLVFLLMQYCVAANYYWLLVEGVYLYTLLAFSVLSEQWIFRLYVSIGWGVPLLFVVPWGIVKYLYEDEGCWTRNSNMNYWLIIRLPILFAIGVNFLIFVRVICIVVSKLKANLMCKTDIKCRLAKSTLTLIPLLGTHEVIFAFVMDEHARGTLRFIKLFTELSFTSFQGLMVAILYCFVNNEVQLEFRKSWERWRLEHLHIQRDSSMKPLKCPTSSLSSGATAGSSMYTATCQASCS
Sequence of human GIPR expressed in HEK293 cells (human) (P48546 22-466): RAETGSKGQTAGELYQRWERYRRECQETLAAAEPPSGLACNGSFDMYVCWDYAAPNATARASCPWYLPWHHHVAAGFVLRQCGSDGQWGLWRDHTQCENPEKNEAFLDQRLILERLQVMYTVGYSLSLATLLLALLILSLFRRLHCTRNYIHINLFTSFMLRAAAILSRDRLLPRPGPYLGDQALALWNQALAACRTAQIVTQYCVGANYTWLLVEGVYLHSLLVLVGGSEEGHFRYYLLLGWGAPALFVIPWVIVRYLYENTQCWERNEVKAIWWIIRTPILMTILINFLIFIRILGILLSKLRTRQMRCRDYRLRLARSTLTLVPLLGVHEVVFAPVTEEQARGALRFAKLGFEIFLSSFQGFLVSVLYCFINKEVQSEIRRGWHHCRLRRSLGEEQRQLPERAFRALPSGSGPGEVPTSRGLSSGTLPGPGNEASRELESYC

**Q.** Which intracellular fluorescence intensity of islet cells from wild-type mice, 30 nM labelled ligand for 30 min, confocal microscopy; negligible (≤4.0) after exendin-4(9-39) or in Glp-1r null islets [1] does the source give for GLP-1^AF647 (ligand) here?
**A.** 104

**Q.** How did the other [2] turn out when “tirzepatide analog lacking the lipid moiety (TZP^ΔC20) (peptide)” was run?
**A.** 4 fold

**Q.** And the other [3]?
**A.** 5 fold

**Q.** And the Kd [4]?
**A.** 1700 nM

**Q.** What about the Kd [5] of the same substance?
**A.** 111 nM

**Q.** How did the intracellular fluorescence intensity of islet cells from wild-type mice, 30 nM labelled ligand for 30 min, confocal microscopy; negligible (≤4.0) after exendin-4(9-39) or in Glp-1r null islets [1] turn out when tirzepatide^ΔC20,Y1H-AF647 (peptide) was run?
**A.** 85.3

**Q.** tirzepatide (LY3298176) (peptide) was tested. Which other [3] did it give?
**A.** 5 fold

**Q.** And the Kd [4]?
**A.** 4200 nM

**Q.** For tirzepatide^AF647 (peptide), which intracellular fluorescence intensity of islet cells from wild-type mice, 30 nM labelled ligand for 30 min, confocal microscopy; negligible (≤4.0) after exendin-4(9-39) or in Glp-1r null islets [1] is on record?
**A.** 46

**Q.** Which Ki [6] does the source give for glucagon-like peptide-1 (GLP-1) here?
**A.** 0.594 nM
